Laboratory results reported in patent US20210024640A1 (REMD BIOTHERAPEUTICS, published 2021).
Changes are numbered by the printed parent chain. Several values for one entry are separate records, joined by “and”; a condition that tells them apart may be missing. Equal values may be shown once. One block for each binder: values may come before it.

Key:
[1] = target: T1, OX40-his (Homo sapiens (Human), UniProt P43489 29-214, limits assumed); assay: SPR Biacore 8K, antibody captured, OX40-his as analyte
T1 construct: Analyte of the Biacore 8K assay; also called Ag OX40-his; Antigen OX40-his; not shown: His tag
T1 sequence: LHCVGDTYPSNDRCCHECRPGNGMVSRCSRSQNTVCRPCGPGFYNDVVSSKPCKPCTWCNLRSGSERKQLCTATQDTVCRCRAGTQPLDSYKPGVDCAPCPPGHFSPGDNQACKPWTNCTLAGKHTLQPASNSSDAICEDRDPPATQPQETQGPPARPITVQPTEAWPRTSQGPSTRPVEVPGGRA
Description: (§1) The affinities of purified antibody binding to OX40-his was determined using a Surface Plasmon Resonance (SPR) biosensor, Biacore 8k. Antibodies were immobilized on the sensor chip through capture method. Antigen OX40-his was used as the analyte. The data of dissociation (kd) and association (ka) rate constants were obtained using Biacore 8k evaluation software. The equilibrium dissociation constants (KD) were calculated from the ratio of kd over ka.

[2] = target: T1, OX40-his; assay: SPR Biacore (summary table; repeats Table 6)
Description: as §1

[3] = target: T2, human OX40 (NP_003318) (human, UniProt P43489 29-214, limits assumed); assay: ELISA, binding to human OX40
T2 construct: also called HuOX40; CD134
T2 sequence: T1 sequence

[4] = target: T3, OX40 on HT1080 OX40 stable cell line (Homo sapiens (Human), UniProt P43489 29-277); assay: cell-based or functional assay
T3 sequence: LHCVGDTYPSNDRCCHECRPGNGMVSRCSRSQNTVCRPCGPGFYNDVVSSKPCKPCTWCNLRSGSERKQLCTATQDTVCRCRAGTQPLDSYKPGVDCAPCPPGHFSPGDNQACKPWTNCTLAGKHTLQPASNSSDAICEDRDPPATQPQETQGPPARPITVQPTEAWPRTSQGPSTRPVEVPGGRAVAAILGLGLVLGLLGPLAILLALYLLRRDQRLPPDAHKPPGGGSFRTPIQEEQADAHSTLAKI

[5] = target: T3, OX40 on HT1080 OX40 stable cell line; assay: cell-based or functional assay; remark: listed apart in the source
[6] = target: T3, OX40 on HT1080 OX40 stable cell line; assay: cell-based or functional assay; remark: listed apart in the source
[7] = target: T3, OX40 on HT1080 OX40 stable cell line; assay: cell-based or functional assay; remark: listed apart in the source
[8] = target: T2, human OX40 (NP_003318); assay: OX40L/OX40 blocking ELISA, purified proteins
[9] = target: T2, human OX40 (NP_003318); assay: ELISA, binding to human OX40; remark: listed apart in the source
[10] = target: T4, cyno OX40 (cyno); assay: ELISA, binding to cyno OX40
T4 construct: also called CyOX40

[11] = target: T5, murine OX40 (murine, UniProt P47741 20-211, limits assumed); assay: ELISA, murine OX40 binding
T5 construct: also called MuOX40; mouse OX40
T5 sequence (looked up): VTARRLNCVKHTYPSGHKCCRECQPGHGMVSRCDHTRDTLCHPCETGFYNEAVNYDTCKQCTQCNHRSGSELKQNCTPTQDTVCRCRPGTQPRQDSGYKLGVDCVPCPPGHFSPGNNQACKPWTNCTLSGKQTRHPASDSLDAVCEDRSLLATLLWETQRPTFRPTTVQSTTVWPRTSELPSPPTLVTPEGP

[12] = target: T2, human OX40 (NP_003318); assay: OX40L/OX40 blocking ELISA, purified proteins; OX40L/OX40 ELISA blocking, purified proteins
[13] = target: T2, human OX40 (NP_003318); assay: ELISA, binding to human OX40 (summary table; repeats Table 3)

Kd [1]: 13800 pM
koff [1]: 0.000848 s⁻¹
kon [1]: 61400 M⁻¹ s⁻¹
Kd [2]: 13800 pM
EC50 [3]: 960 pM
EC50 (read off the curve), IL-8 secretion, OX40L-free Ab agonist assay [4]: ~1000 pM
HT1080 + OX40L Antagonist Assay IC50 [5]: 1.53 NM
B1: humanized Ab REMD 277.1 (VH2-1/VL2-1) (antibody, human IgG1, kappa, V domains shown)
VH: EVQLVQSGAEVKKPGESLKISCKGSGYTFTSYVMHWVRQMPGKGLEWMGYINPYNDGTKYNEKFKGQVTISADKSISTAYLQWSSLKASDTAMYYCARYYGSNYAMDYWGQGTMVTVSS
VL: EIVLTQSPATLSLSPGERATLSCRASQDIRNYLNWYQQKPGQAPRLLIYYTSRLHSGIPARFSGSGSGTDFTLTISSLEPEDFAVYYCQQGNTLPWTFGQGTKVEIKR

Kd [1]: 5940 pM
koff [1]: 0.000119 s⁻¹
kon [1]: 20000 M⁻¹ s⁻¹
Kd [2]: 5940 pM
EC50 [3]: 3100 pM
HT1080 + OX40L Antagonist Assay IC50 [5]: 3.52 NM
B2: humanized Ab REMD 277.2 (VH2-1/VL5BM) (antibody, human IgG1, kappa, V domains shown)
VH: B1 VH
VL: DIQMTQSPSSLSASVGDRVTISCRASQDIRNYLNWYQQKPGKTVKLLIYYTSRLHSGVPSRFSGSGSGTDYTFTISSLQPEDIATYFCQQGNTLPWTFGGGTKLEIKR

Kd [1]: 6300 pM
koff [1]: 0.000178 s⁻¹
kon [1]: 28200 M⁻¹ s⁻¹
Kd [2]: 6300 pM
EC50 [3]: 600 pM
cell-based functional assay in the absence of OX40L, EC50 [6]: 1560 pM
HT1080 + OX40L Antagonist Assay IC50 [5]: 0.479 NM
B3: humanized Ab REMD 277 (VH2-1/VL2-2) (antibody, human IgG1, kappa, V domains shown)
VH: B1 VH
VL: B1 VL with L4M, L13A, A19V, Q42G, P44V, I58V, F71Y, F83Y, Y87F

HT1080 + OX4OL/IL-8 Antagonist Assay IC50 [7]: 1350 pM
HT1080 Agonist Assay EC50 (IL-8 secretion) [7]: 8080 pM
HT1080 Agonist Assay nBMAX [7]: 1.52
IC50 [8]: 68.3 pM
EC50 [9]: 15.7 pM and 15.1 pM
EC50 [10]: 30.5 pM
binding result [11]: no binding
B4: murine antibody A4 (13C2G10F10) (antibody, V domains shown)
VH: EVQLQQSGPELVKPGASVKMSCKASGYTFTSYIMHWVKQKPGQGLEWIGYINPYNDGTKYNEKFKGKATLTSDKSSSTAYMELSSLTSEDSAVYYCANYYGSSYTMDYWGQGTSVTVSS
VL: DIQMTQTTSSLSASLGDRVTISCRASQDIRNYLNWYQQKPDGSVKLLIYYTSRLHSGVPSRFSGSGSGTDYSLTISNLEQEDIATYFCQQGNTLPWTFGGGTKLEIK
notes: also called MAb A4; H4/L4

HT1080 Agonist Assay EC50 (IL-8 secretion) [7]: 2800 pM
HT1080 Agonist Assay nBMAX [7]: 3.2
IC50 [8]: 38.2 pM
EC50 [9]: 8.1 pM and 7.9 pM
EC50 [10]: 14.3 pM
binding result [11]: no binding
B5: murine antibody A5 (40H11C2F5) (antibody, V domains shown)
VH: EVQLQQSGPELVKPGASVKISCKASGYTFTENYMNWVKQSHGKSLEWIGDINRNNGGTRYNQKFKGKATLTVDKSSSTDYMELRSLTSEDSAVYYCGGTVVGYFDVWGTGTTVTVSS
VL: B4 VL with T7I, T8I, S9T, A25S, R30S, S43T, H55K
notes: also called MAb A5; H5/L5

HT1080 Agonist Assay EC50 (IL-8 secretion) [7]: 6740 pM
HT1080 Agonist Assay nBMAX [7]: 4.49
IC50 [12]: 29.3 pM
EC50 [9]: 12.8 pM and 13.6 pM
EC50 [10]: 17.1 pM
binding result [11]: no binding
B6: murine antibody A3 (14F2C2D7) (antibody, V domains shown)
VH: QVQLKESGPGLVAPSQSLSITCTVSGFSLSSYGVHWVRQPPGKGLEWLGVIWAGGSTDYNSALMSRLSISKDNSKSQVVLKMNSLQTDDTAMYYCAREEVWDWGQGTLVTVSA
VL: B4 VL with R30S, S43T, H55Q, W96L, G100A, I106L
notes: also called MAb A3; H3/L3

Kd [1]: 9180 pM
koff [1]: 0.000865 s⁻¹
kon [1]: 94200 M⁻¹ s⁻¹
Kd [2]: 9180 pM
EC50 [3]: 28 pM
HT1080 + OX40L Antagonist Assay IC50 [5]: 109 NM
B7: murine-human chimeric antibody derived from murine antibody A6 (chimeric IgG) (antibody, V domains shown)
VH: B4 VH with I33V, S103N, T105A
VL: B2 VL with S7T, P8T, V15L, G41D, K42G, T72S, F73L, S77N, Q79E, P80Q
notes: also called chimeric OX40 Ab

HT1080 Agonist Assay EC50 (IL-8 secretion) [7]: 1560 pM
HT1080 Agonist Assay nBMAX [7]: 4.54
EC50 [13]: 27.5 pM
EC50 [9]: 27.5 pM and 27.2 pM
EC50 [10]: 44.6 pM
HT1080 + OX40L Antagonist Assay IC50 [5]: 1.34 NM
binding result [11]: no binding
B8: murine antibody A6 (2G2E2D8) (antibody, V domains shown)
VH: B4 VH with I33V, S103N, T105A
VL: B4 VL with S43T
notes: also called MAb A6; Murine A6
